Measured values as given in PMC9822835 (Computational and Structural Biotechnology Journal, 2022).

Molecular target: Tumor necrosis factor alpha (TNF-α) (Homo sapiens, UniProt P01375)
Experiment: SPR

Sequence of Tumor necrosis factor alpha (TNF-α) (P01375 whole entry): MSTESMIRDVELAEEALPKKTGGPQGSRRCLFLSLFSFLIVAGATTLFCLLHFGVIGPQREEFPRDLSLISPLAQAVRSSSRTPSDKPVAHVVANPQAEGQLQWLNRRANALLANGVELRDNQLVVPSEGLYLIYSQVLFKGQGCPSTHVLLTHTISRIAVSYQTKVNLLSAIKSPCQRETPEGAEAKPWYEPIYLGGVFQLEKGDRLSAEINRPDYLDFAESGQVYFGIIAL

B1: VHH2^E50V&T53W (VHH)
VHH: QVQLVESGGGLVQPGGSLRLSCAASGFTFSNYWMYWVRQAPGKGLEWVSVINWNGLITKYPDSVKGRFTISRDNAKNTLYLQMNSLKPEDTALYYCARSPSGFNRGQGTQVTVSS
  Kd: 4.6 nM
